# Laboratory results taken from patent US20250250314.
# Test system: UCM12
# Sequence (chain, as listed by the source, chain 1 of 3, other chains not shown): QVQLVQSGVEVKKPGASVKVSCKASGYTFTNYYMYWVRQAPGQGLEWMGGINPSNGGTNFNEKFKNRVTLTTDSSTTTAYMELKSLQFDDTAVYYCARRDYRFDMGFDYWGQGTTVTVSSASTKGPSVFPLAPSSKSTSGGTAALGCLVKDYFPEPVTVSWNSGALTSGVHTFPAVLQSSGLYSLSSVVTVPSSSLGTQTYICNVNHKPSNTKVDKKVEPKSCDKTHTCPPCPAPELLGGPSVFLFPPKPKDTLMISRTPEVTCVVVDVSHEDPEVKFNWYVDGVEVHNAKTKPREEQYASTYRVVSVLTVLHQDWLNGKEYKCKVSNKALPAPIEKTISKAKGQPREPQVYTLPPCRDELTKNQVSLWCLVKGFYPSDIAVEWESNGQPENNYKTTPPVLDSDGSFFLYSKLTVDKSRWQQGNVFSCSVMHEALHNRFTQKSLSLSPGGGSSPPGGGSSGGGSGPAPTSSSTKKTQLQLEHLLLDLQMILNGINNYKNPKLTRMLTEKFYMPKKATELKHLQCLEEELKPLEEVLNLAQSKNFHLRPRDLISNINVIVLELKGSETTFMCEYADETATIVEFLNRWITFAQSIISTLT
# Sequence (chain, as listed by the source, chain 2 of 3, other chains not shown): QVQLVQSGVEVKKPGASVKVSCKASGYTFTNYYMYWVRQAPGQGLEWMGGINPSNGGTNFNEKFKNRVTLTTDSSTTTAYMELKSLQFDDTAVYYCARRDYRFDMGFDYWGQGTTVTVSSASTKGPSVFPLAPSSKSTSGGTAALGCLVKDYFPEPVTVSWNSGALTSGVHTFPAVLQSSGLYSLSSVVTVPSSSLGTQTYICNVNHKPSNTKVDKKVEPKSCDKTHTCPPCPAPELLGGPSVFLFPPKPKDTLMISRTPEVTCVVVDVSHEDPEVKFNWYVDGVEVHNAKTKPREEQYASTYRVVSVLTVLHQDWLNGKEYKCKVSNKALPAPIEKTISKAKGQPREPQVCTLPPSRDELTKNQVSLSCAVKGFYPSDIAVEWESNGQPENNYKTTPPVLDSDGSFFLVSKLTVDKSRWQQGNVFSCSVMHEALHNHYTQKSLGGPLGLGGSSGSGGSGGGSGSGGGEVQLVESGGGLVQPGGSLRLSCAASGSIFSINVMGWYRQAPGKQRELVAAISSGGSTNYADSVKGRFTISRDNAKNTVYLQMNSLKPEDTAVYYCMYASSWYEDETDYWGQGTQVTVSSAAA
# Sequence of MMP9 (chain, as listed by the source): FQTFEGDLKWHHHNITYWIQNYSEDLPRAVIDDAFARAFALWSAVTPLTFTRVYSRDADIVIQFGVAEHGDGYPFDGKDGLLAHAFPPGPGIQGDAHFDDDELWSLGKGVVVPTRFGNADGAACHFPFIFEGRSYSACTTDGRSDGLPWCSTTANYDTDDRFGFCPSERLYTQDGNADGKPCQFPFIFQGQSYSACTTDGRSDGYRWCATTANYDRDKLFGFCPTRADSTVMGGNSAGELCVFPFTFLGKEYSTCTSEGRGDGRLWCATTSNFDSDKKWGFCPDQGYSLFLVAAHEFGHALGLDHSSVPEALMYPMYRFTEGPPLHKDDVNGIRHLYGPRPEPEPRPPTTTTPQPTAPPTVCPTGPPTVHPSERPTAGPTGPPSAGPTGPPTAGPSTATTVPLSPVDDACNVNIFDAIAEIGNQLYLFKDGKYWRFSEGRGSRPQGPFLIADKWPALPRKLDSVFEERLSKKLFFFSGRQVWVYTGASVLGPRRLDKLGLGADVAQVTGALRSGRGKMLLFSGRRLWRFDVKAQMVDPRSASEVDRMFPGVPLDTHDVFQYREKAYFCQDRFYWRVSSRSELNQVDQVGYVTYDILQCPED
# Sequence of Cathepsin L (chain, as listed by the source): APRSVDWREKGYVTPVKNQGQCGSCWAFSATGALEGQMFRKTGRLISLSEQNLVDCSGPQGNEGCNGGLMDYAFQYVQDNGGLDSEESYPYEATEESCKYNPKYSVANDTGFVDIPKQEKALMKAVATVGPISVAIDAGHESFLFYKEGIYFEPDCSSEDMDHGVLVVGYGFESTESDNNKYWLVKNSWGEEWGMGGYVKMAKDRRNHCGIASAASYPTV
# Sequence of MMP8 (chain, as listed by the source): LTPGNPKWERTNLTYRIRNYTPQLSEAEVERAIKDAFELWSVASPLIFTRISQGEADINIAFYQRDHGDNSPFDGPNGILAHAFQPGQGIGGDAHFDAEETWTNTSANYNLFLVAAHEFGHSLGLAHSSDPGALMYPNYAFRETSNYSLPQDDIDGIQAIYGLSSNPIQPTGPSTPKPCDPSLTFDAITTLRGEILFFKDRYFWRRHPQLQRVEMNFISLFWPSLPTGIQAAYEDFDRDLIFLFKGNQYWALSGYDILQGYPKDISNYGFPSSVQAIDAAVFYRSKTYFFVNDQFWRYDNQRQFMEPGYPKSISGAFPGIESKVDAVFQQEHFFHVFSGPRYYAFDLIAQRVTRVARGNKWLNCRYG
row,Substance,kcat/Km
1,MMP8,810 M⁻¹ s⁻¹
2,MMP9,7900 M⁻¹ s⁻¹
3,Cathepsin L,14000 M⁻¹ s⁻¹
